In publication PMC6650136, “Awakening the Sleeping Carboxylase Function of Enzymes: Engineering the Natural CO2-Binding Potential of Reductases” (Journal of the American Chemical Society, 2019) one finds Km and kcat data, which are given here for four substances.

For this data set, the system named is C=CC(=O)SCCNC(=O)CCNC(=O)[C@H](O)C(C)(C)COP(=O)(O)OP(=O)(O)OC[C@H]1O[C@@H](n2cnc3c(N)ncnc32)[C@H](O)[C@@H]1OP(=O)(O)O. The experiment in a line: purified protein. The following applies: apparent; kcat at 4.4 mM CO2, combined reduction and carboxylation.
Text: steady-state kinetics, Michaelis-Menten fit on PCSEN_ΔDH (propionyl-CoA synthase, reductase domain activity)
As a reminder, the Km is the substrate concentration at which the rate is half of its maximum. As a reminder, the kcat is the number of substrate molecules converted per active site and unit of time at saturation. Take “PCSEN_ΔDH (propionyl-CoA synthase, reductase domain activity) (Erythrobacter sp. NAP1; D1302S/E1027Q)”: the Km was determined as 27 ± 3 µM and the kcat came to 1.77 ± 0.09 s⁻¹.

For “PCSEN_ΔDH (propionyl-CoA synthase, reductase domain activity) (Erythrobacter sp. NAP1; D1302S/E1027Q/T1753M)”, the Km was 26 ± 3 µM and the kcat worked out at 0.46 ± 0.03 s⁻¹.

“PCSEN_ΔDH (propionyl-CoA synthase, reductase domain activity) (Erythrobacter sp. NAP1; E1027Q)”: the Km stood at 14 ± 2 µM and the kcat worked out at 7.4 ± 1.0 s⁻¹.

For “PCSEN_ΔDH (propionyl-CoA synthase, reductase domain activity) (Erythrobacter sp. NAP1; E1027Q/T1753M)”, the Km stood at 19.7 ± 1.2 µM and the catalytic constant (kcat) stood at 6.5 ± 0.6 s⁻¹.
